Laboratory results taken from patent US20060160994A1.

How the values were obtained:
[1] = target: low density lipoprotein receptor-related protein (LRP), purified and immobilized (UniProt Q07954); experiment: SPR, LRP immobilized (8.3 fmol/mm^2), analyte 100 nM, corrected for nonspecific binding
[2] = target: LRP exposed on the surface of mouse fibroblast (C127) cells (mouse (mouse fibroblast cells)) (UniProt Q91ZX7); experiment: cell-based or functional assay
Sequence of LRP exposed on the surface of mouse fibroblast (C127) cells (mouse (mouse fibroblast cells)) (Q91ZX7 20-4545): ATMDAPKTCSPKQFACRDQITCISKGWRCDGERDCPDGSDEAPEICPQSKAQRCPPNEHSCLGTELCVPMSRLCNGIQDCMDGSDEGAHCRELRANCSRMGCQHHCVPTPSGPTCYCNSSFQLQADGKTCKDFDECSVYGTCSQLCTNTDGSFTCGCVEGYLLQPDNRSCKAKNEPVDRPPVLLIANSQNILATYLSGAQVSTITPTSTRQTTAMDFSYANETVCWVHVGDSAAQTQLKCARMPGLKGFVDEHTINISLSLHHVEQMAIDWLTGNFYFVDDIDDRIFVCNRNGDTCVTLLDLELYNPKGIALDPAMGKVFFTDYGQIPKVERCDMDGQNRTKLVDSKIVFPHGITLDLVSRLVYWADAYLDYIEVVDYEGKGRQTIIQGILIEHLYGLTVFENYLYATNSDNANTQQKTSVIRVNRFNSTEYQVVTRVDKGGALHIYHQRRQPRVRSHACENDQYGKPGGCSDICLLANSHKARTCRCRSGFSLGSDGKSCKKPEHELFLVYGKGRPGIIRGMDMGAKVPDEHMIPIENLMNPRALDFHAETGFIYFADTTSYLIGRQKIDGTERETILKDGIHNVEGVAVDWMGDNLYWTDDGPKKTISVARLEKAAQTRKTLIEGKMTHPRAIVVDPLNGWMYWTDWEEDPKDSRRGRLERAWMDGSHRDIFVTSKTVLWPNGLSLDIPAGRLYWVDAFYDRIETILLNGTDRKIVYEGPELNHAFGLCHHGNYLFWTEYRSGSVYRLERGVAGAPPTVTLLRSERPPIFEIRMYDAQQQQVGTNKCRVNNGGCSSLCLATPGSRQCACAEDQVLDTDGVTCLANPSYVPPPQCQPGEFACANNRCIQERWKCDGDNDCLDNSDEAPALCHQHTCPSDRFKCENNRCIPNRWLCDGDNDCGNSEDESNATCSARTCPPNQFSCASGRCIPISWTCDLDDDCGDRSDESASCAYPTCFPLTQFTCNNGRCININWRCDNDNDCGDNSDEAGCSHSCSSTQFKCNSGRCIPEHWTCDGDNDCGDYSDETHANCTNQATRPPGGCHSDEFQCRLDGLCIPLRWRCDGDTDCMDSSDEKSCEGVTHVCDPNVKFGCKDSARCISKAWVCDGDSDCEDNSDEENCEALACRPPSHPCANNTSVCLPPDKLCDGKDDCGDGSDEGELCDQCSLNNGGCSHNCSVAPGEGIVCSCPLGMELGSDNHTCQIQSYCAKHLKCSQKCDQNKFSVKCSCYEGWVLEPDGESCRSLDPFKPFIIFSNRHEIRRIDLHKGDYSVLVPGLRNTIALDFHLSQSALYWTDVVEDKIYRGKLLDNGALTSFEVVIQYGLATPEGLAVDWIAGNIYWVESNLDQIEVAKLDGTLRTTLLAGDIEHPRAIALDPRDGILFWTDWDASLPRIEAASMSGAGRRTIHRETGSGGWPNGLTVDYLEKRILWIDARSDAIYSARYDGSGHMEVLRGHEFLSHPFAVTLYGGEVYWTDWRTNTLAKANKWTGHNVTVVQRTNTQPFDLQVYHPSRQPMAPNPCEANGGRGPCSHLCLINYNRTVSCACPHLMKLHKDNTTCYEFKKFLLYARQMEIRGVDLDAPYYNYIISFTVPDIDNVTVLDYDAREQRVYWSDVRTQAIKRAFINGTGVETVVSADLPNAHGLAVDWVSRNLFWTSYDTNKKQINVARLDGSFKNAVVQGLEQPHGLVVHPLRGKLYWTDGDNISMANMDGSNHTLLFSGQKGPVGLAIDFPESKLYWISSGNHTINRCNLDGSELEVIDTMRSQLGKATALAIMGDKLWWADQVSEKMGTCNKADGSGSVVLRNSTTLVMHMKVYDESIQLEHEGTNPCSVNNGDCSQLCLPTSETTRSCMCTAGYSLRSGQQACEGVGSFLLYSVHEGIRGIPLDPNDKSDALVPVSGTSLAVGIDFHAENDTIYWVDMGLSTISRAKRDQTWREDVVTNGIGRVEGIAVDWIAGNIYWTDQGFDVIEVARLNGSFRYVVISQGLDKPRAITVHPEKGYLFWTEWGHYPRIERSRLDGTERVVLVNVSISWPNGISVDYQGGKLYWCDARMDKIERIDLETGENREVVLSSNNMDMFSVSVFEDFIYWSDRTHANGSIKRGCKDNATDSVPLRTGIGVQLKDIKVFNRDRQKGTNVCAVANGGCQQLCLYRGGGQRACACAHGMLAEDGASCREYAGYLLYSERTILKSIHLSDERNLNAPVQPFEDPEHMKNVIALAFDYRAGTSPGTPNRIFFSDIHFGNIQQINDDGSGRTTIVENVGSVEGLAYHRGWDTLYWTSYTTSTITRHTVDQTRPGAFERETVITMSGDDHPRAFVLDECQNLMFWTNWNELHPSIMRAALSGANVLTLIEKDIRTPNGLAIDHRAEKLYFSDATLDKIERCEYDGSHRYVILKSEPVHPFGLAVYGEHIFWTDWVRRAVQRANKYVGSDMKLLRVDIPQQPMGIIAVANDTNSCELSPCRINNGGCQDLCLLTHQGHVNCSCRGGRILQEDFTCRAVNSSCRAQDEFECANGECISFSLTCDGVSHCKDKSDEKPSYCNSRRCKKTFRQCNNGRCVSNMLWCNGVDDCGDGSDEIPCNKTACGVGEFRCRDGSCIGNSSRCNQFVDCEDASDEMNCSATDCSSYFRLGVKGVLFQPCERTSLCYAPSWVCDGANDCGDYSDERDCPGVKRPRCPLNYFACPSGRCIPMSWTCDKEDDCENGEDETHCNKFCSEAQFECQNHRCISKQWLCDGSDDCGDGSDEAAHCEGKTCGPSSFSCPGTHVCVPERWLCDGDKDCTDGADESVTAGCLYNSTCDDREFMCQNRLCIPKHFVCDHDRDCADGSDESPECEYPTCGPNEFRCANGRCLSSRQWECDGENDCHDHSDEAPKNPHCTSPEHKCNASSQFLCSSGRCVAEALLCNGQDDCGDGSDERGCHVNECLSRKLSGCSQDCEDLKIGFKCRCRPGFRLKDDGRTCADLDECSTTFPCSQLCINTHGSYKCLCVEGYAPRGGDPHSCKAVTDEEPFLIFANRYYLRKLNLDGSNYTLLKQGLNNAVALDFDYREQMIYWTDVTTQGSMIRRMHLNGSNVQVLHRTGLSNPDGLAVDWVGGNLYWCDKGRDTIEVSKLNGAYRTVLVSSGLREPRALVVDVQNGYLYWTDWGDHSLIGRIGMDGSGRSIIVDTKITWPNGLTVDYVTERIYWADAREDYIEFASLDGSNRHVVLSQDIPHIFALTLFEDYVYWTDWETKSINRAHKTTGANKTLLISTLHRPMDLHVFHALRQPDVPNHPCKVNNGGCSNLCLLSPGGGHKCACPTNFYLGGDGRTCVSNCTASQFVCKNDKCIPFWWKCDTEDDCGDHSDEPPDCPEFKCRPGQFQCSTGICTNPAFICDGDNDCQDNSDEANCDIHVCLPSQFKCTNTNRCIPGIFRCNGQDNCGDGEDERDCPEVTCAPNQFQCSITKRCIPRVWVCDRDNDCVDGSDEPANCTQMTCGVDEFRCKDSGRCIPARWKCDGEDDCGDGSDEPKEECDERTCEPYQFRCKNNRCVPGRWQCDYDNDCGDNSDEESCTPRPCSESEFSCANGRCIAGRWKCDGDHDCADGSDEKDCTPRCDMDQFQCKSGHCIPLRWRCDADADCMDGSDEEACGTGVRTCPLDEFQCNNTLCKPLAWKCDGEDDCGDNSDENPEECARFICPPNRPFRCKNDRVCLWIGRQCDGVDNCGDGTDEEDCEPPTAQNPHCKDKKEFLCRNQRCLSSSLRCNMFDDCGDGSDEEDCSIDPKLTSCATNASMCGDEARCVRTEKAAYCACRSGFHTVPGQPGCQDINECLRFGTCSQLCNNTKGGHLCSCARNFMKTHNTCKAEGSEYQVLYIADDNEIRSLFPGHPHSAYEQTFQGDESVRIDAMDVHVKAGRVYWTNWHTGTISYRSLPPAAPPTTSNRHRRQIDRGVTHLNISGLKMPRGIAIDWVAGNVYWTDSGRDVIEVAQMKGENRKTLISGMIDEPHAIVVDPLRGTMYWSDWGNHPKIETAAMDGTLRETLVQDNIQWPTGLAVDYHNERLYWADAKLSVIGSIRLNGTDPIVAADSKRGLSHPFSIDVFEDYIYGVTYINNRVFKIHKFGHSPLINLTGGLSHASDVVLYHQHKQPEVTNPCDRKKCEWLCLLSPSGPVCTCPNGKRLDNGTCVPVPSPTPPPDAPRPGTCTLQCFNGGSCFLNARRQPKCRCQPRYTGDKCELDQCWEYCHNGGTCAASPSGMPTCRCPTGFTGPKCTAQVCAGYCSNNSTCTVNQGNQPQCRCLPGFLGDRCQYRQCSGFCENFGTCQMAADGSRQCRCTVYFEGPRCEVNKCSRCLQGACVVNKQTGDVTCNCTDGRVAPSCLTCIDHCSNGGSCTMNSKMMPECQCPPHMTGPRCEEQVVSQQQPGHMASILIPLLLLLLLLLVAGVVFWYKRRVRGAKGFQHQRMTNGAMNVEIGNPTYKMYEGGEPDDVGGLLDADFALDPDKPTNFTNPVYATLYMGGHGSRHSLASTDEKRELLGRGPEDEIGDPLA

“heavy chain of Factor VIII (from UniProt P00451 20-1667)” showed a Binding (resonance units) (resonance units) [1] of 0.
With “normal Factor VIII (produced by stably transfected mouse fibroblast C127 cells) (from UniProt P00451 20-2351)” the Ratio +RAP/-RAP of Factor VIII expression (U/L) in medium of C127 cells, 2 h [2] was 3.2 and the Ratio +RAP/-RAP of Factor VIII expression (U/L) in medium of C127 cells, 3 h [2] was 2.3.
With “Factor VIII, P00451 20-1667; P00451 1668-2351” the Binding (resonance units) (resonance units) [1] was 262.
“thrombin-activated Factor VIII (from UniProt P00451 20-391; P00451 392-759; P00451 1709-2351)” was tested, and the Binding (resonance units) (resonance units) [1] was 446.
